Data as given in patent US20150344570A1 (published 2015).

T1: FcγRIIb, extracellular domain with C-terminal His tag (human, UniProt P31994 43-217)
T1 construct: extracellular domain; also called FcgRIIb; 2b; not shown: His tag at the C terminus
T1 sequence (looked up): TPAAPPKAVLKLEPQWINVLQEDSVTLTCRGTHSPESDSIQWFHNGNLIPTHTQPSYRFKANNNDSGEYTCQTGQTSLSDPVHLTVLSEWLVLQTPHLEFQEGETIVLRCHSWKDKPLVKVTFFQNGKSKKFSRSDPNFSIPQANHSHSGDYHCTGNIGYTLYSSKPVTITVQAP

T2: FcγRIIa H (FcγRIIa, allotype with His at position 131), extracellular domain with C-terminal His tag (human, UniProt P12318 34-217)
T2 construct: extracellular domain; also called FcgRIIa H; 2aH; not shown: His tag at the C terminus
T2 sequence (looked up): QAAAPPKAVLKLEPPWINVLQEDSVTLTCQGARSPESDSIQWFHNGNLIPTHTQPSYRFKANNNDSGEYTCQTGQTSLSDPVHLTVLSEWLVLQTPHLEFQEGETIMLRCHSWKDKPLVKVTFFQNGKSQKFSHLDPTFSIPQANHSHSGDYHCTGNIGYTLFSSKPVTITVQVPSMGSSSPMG


Assays:
[1] = biological target: T1, FcγRIIb, extracellular domain with …; assay: SPR (Biacore), relative binding vs GpH7-A5/GpH7-B3/GpL16-k0
[2] = biological target: T2, FcγRIIa H (FcγRIIa, allotype with His …); assay: as above
[3] = biological target: T2, FcγRIIa H (FcγRIIa, allotype with His …); assay: SPR (Biacore); He/Con_2aH divided by He/Con_2b (FcγRIIb)

Binder | He/Con_2b [1] | He/Con_2aH [2] | He_2aH/2b (IIaH/IIb) [3]
GpH7-A5/GpH7-B3 variant A327_03V/GpL16-k0 (antibody, human IgG1, kappa, Heterodimerized anti-glypican-3 IgG1; mutation in one H chain only; also called He Ab) heavy 1: not shown heavy 2: not shown light: DIVMTQSPLSLPVTPGEPASISCQASESLVHSNRNTYLHWYLQKPGQSPQLLIYKVSNRFSGVPDRFSGSGSGTDFTLKISRVEAEDVGVYYCSQNTHVPPTFGQGTKVEIERTVAAPSVFIFPPSDEQLKSGTASVVCLLNNFYPREAKVQWKVDNALQSGNSQESVTEQDSKDSTYSLSSTLTLSKADYEKHKVYACEVTHQGLSSPVTKSFNRGEC | 94.7 % of HeCon Ab (=100) | 51 % of HeCon Ab (=100) | 0.54 ratio
GpH7-A5/GpH7-B3 variant L328_03V/GpL16-k0 (antibody, human IgG1, kappa, Heterodimerized anti-glypican-3 IgG1; mutation in one H chain only; also called He Ab) heavy 1: not shown heavy 2: not shown light: DIVMTQSPLSLPVTPGEPASISCQASESLVHSNRNTYLHWYLQKPGQSPQLLIYKVSNRFSGVPDRFSGSGSGTDFTLKISRVEAEDVGVYYCSQNTHVPPTFGQGTKVEIERTVAAPSVFIFPPSDEQLKSGTASVVCLLNNFYPREAKVQWKVDNALQSGNSQESVTEQDSKDSTYSLSSTLTLSKADYEKHKVYACEVTHQGLSSPVTKSFNRGEC | 126 % of HeCon Ab (=100) | 97.8 % of HeCon Ab (=100) | 0.78 ratio
GpH7-A5/GpH7-B3 variant A327_09D/GpL16-k0 (antibody, human IgG1, kappa, Heterodimerized anti-glypican-3 IgG1; mutation in one H chain only; also called He Ab) heavy 1: not shown heavy 2: not shown light: DIVMTQSPLSLPVTPGEPASISCQASESLVHSNRNTYLHWYLQKPGQSPQLLIYKVSNRFSGVPDRFSGSGSGTDFTLKISRVEAEDVGVYYCSQNTHVPPTFGQGTKVEIERTVAAPSVFIFPPSDEQLKSGTASVVCLLNNFYPREAKVQWKVDNALQSGNSQESVTEQDSKDSTYSLSSTLTLSKADYEKHKVYACEVTHQGLSSPVTKSFNRGEC | 172 % of HeCon Ab (=100) | 105 % of HeCon Ab (=100) | 0.61 ratio
GpH7-A5/GpH7-B3 variant A327_08L/GpL16-k0 (antibody, human IgG1, kappa, Heterodimerized anti-glypican-3 IgG1; mutation in one H chain only; also called He Ab) heavy 1: not shown heavy 2: not shown light: DIVMTQSPLSLPVTPGEPASISCQASESLVHSNRNTYLHWYLQKPGQSPQLLIYKVSNRFSGVPDRFSGSGSGTDFTLKISRVEAEDVGVYYCSQNTHVPPTFGQGTKVEIERTVAAPSVFIFPPSDEQLKSGTASVVCLLNNFYPREAKVQWKVDNALQSGNSQESVTEQDSKDSTYSLSSTLTLSKADYEKHKVYACEVTHQGLSSPVTKSFNRGEC | 63.1 % of HeCon Ab (=100) | 46.9 % of HeCon Ab (=100) | 0.74 ratio
GpH7-A5/GpH7-B3 variant A327_07I/GpL16-k0 (antibody, human IgG1, kappa, Heterodimerized anti-glypican-3 IgG1; mutation in one H chain only; also called He Ab) heavy 1: not shown heavy 2: not shown light: DIVMTQSPLSLPVTPGEPASISCQASESLVHSNRNTYLHWYLQKPGQSPQLLIYKVSNRFSGVPDRFSGSGSGTDFTLKISRVEAEDVGVYYCSQNTHVPPTFGQGTKVEIERTVAAPSVFIFPPSDEQLKSGTASVVCLLNNFYPREAKVQWKVDNALQSGNSQESVTEQDSKDSTYSLSSTLTLSKADYEKHKVYACEVTHQGLSSPVTKSFNRGEC | 127 % of HeCon Ab (=100) | 58.4 % of HeCon Ab (=100) | 0.46 ratio

Continued, values first:

He/Con_2b [1] | He/Con_2aH [2] | He_2aH/2b (IIaH/IIb) [3] | Binder
235 % of HeCon Ab (=100) | 113 % of HeCon Ab (=100) | 0.48 ratio | GpH7-A5/GpH7-B3 variant L328_20W/GpL16-k0 (antibody, human IgG1, kappa, Heterodimerized anti-glypican-3 IgG1; mutation in one H chain only; also called He Ab) heavy 1: not shown heavy 2: not shown light: DIVMTQSPLSLPVTPGEPASISCQASESLVHSNRNTYLHWYLQKPGQSPQLLIYKVSNRFSGVPDRFSGSGSGTDFTLKISRVEAEDVGVYYCSQNTHVPPTFGQGTKVEIERTVAAPSVFIFPPSDEQLKSGTASVVCLLNNFYPREAKVQWKVDNALQSGNSQESVTEQDSKDSTYSLSSTLTLSKADYEKHKVYACEVTHQGLSSPVTKSFNRGEC
199 % of HeCon Ab (=100) | 58.5 % of HeCon Ab (=100) | 0.29 ratio | GpH7-A5/GpH7-B3 variant L328_09D/GpL16-k0 (antibody, human IgG1, kappa, Heterodimerized anti-glypican-3 IgG1; mutation in one H chain only; also called He Ab) heavy 1: not shown heavy 2: not shown light: DIVMTQSPLSLPVTPGEPASISCQASESLVHSNRNTYLHWYLQKPGQSPQLLIYKVSNRFSGVPDRFSGSGSGTDFTLKISRVEAEDVGVYYCSQNTHVPPTFGQGTKVEIERTVAAPSVFIFPPSDEQLKSGTASVVCLLNNFYPREAKVQWKVDNALQSGNSQESVTEQDSKDSTYSLSSTLTLSKADYEKHKVYACEVTHQGLSSPVTKSFNRGEC
219 % of HeCon Ab (=100) | 71.7 % of HeCon Ab (=100) | 0.33 ratio | GpH7-A5/GpH7-B3 variant L328_04F/GpL16-k0 (antibody, human IgG1, kappa, Heterodimerized anti-glypican-3 IgG1; mutation in one H chain only; also called He Ab) heavy 1: not shown heavy 2: not shown light: DIVMTQSPLSLPVTPGEPASISCQASESLVHSNRNTYLHWYLQKPGQSPQLLIYKVSNRFSGVPDRFSGSGSGTDFTLKISRVEAEDVGVYYCSQNTHVPPTFGQGTKVEIERTVAAPSVFIFPPSDEQLKSGTASVVCLLNNFYPREAKVQWKVDNALQSGNSQESVTEQDSKDSTYSLSSTLTLSKADYEKHKVYACEVTHQGLSSPVTKSFNRGEC
160 % of HeCon Ab (=100) | 93.9 % of HeCon Ab (=100) | 0.59 ratio | GpH7-A5/GpH7-B3 variant L328_07I/GpL16-k0 (antibody, human IgG1, kappa, Heterodimerized anti-glypican-3 IgG1; mutation in one H chain only; also called He Ab) heavy 1: not shown heavy 2: not shown light: DIVMTQSPLSLPVTPGEPASISCQASESLVHSNRNTYLHWYLQKPGQSPQLLIYKVSNRFSGVPDRFSGSGSGTDFTLKISRVEAEDVGVYYCSQNTHVPPTFGQGTKVEIERTVAAPSVFIFPPSDEQLKSGTASVVCLLNNFYPREAKVQWKVDNALQSGNSQESVTEQDSKDSTYSLSSTLTLSKADYEKHKVYACEVTHQGLSSPVTKSFNRGEC
